From patent publication US20110035817A1 (YEDA RESEARCH AND DEVELOPMENT, published 2011)

Molecular target: T1, myc-NIK (wild-type NIK fused N-terminally to a six myc tag) (UniProt Q99558 1-947)
T1 construct: pCS3MTNIK expression vector, co-transfected into HEK-293T cells; also called NF-κB-inducing kinase; MAP3K14; not shown: six myc tag at the N-terminus
Test: co-immunoprecipitation from HEK-293T lysate: NIK immunoprecipitated with anti-NIK antibody, co-precipitated SIVA detected by Western blot
Procedure: FLAG-SIVA2 or FLAG-SIVA3 expression vectors were co-transfected with NIK expression vector into HEK-293T cells. 24 h later, cells were lysed, NIK was immunoprecipitated with anti-NIK antibody and co-precipitated SIVA was monitored by western Blotting. WB=Western Blot, TLC=Total cell lysate, IP=immunoprecipitation.
Next, it was explored whether SIVA3 binds NIK. FLAG-SIVA2 (8 μg) or FLAG-SIVA3 (8 μg) were co-transfected with myc-NIK (7 μg) into HEK-293T cells (1.5×10⁶ seeded in 90 mm plate, transfected using calcium phosphate method). 24 h later, cells were lysed, NIK was immunoprecipitated with anti-NIK antibody and co-precipitated SIVA was detected by western Blotting.

T1 sequence (Q99558 whole entry, the tested form may be a part): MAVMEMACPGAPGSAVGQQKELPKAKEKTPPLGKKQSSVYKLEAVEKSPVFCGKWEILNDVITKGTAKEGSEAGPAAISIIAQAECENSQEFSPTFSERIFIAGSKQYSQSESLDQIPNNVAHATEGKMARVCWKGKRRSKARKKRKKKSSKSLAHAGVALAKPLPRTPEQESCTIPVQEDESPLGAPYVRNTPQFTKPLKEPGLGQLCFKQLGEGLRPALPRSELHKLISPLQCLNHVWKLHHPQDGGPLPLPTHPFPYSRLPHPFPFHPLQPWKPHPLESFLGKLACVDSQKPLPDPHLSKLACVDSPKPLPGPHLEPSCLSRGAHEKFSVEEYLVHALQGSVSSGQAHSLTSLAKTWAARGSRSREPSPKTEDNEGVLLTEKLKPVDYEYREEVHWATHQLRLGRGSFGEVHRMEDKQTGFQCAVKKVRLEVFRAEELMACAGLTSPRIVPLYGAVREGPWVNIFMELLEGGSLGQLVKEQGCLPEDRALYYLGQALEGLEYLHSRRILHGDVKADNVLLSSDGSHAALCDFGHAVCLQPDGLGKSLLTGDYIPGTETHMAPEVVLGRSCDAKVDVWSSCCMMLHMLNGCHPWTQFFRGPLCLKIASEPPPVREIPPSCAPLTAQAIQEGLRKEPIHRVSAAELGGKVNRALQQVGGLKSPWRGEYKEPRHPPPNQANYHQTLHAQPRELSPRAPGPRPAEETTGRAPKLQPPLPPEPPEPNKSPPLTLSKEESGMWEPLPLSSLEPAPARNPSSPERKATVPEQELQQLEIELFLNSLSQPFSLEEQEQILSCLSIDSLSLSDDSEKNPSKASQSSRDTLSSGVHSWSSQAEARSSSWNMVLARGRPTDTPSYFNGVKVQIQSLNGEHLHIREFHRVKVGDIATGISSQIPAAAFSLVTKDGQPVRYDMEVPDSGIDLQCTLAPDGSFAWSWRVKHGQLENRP

B1: FLAG-SIVA3 (other)
chain: MPKRSCPFADVAPLQLKVRVSQRELSRGVCAERYSQEVFAAVTCTRKCCAPAVPCSRPEAGSSRLPSPGATPCMAAFPGRALGVHTELWGRREGCLLHVLFCILMTE
notes: Expressed from pcDNA3 in HEK-293T cells and tested in lysate by co-immunoprecipitation; not shown: FLAG tag
  binding result: no binding
